Measured values published in patent US20230304019, “DNA APTAMER, PHARMACEUTICAL COMPOSITION COMPRISING SAME, METHOD FOR INHIBITING CATALYTIC ABILITY OF TXNDC5, AND METHOD FOR PREVENTING OR TREATING ORGAN FIBROSIS” (CHI-HUA FUNDATION, published 2023).

Legend:
[1] = target: T1, TXNDC5 (Mus musculus, UniProt Q91W90 Q91W90:34-417); experiment: magnetic nanoparticle (MARAS) pulldown with q-PCR, nonlinear regression; conditions: tags: Ni-column purified, baculovirus/insect cells, Sino Biological; double stem-loop (predicted)
T1 sequence (Q91W90 34-417, one chain of several): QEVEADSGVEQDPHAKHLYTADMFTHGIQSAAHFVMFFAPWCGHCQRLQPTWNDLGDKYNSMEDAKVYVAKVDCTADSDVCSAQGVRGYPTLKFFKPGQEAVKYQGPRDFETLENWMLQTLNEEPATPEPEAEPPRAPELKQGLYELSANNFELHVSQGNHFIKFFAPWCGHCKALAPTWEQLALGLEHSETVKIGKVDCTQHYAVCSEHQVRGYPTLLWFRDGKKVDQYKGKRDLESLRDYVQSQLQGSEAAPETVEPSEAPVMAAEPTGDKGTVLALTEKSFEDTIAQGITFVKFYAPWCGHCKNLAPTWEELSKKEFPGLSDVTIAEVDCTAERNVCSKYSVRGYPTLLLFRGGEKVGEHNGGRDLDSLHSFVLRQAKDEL
Protocol: (§1) For further determining the binding efficiency of TXNDC5-targeting aptamers, the Kd values, as the indicator of aptamer and target molecule interaction, of aptamer-3 and aptamer-7 are measured by q-PCR, and the results were fitted with nonlinear regression. The method of measuring the Kd values of aptamer-3 and aptamer-7 is illustrated as following.
(§2) Aptamer-3 and aptamer-7 are isolated and progressively diluted in series from 100 to 3.125 nM, aptamer-3 and aptamer-7 are folded in the binding buffer as the procedures mentioned above. Equal amounts of either mouse-MNPs or humane-MNPs are mixed with aptamer-3 and aptamer-7 and followed the MARAS and q-PCR procedure as described above to specifically bind to aptamer-3 and aptamer-7. The Kd values of aptamer-3 and aptamer-7 are measured by fitting the results of each Ct value from q-PCR and the concentrations in a nonlinear regression through PRISM 8 (Graphpad). Each result is performed in duplicate to reduce the errors.

[2] = target: T2, TXNDC5 (wild type) (Homo sapiens, UniProt Q8NBS9 Q8NBS9:33-432); experiment: inhibition; insulin reduction turbidity assay, 0.5 mM DTT, potassium phosphate, EDTA, pH 7; conditions: tags: Ni-column purified, baculovirus/insect cells, Sino Biological
T2 sequence (Q8NBS9 33-432, one chain of several): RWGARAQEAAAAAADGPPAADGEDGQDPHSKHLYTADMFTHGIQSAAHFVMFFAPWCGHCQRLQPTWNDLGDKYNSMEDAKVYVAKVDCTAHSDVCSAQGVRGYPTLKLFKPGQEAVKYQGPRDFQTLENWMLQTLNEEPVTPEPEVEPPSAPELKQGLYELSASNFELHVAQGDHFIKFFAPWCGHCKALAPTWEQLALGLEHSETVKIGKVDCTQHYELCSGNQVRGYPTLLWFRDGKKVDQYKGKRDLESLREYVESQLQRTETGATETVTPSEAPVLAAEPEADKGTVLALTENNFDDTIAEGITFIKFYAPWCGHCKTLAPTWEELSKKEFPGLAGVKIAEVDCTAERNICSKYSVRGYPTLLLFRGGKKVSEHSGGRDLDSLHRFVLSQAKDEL
Protocol: An insulin/assay buffer is prepared by adding 1.6 mM insulin (which is prepared by dissolving insulin in 0.1 N HCl) with the assay buffer consisted of 100 mM potassium phosphate and 0.2 mM EDTA (pH 7). The volume of each insulin/assay buffer is 15 μl, wherein the volume of insulin is 6 μl and the volume of assay buffer is 9 μl.
Each of the above mixtures of aptamers (Ap-3, Ap7 and Ap-11) with different concentrations and human wild type TXNDC5 is added with a corresponding insulin/assay buffer separately. That is, aptamer-3, aptamer-7 and aptamer-11 have seven experimental group samples (with different concentrations, 7.8125 μM, 15.625 μM, 31.25 μm, 62.5 μM, 125 μM, 250 μM and 500 μM) separately. An insulin/assay buffer which is not added with the above mixture of aptamers and human wild type TXNDC5 is prepared as the control group sample.

[3] = target: T2, TXNDC5 (wild type); experiment: magnetic nanoparticle (MARAS) pulldown with q-PCR, nonlinear regression; conditions: tags: Ni-column purified, baculovirus/insect cells, Sino Biological; double stem-loop (predicted)
Protocol: as §1, §2

[4] = target: T1, TXNDC5; experiment: q-PCR of eluted aptamer; specific and strong binding to mouse TXNDC5; conditions: tags: Ni-column purified, baculovirus/insect cells, Sino Biological; single stem-loop (predicted)
Protocol: The 100 nM of aptamer-3, aptamer-7 and aptamer-11 are folded in the binding buffer via the procedures as mentioned above. 20 nM of Aptamer-3, aptamer-7 and aptamer-11 are taken individually and hybridized with positive-(mouse and human TXNDC5, 5 μl) and negative-(serum and catalytic-death TXNDC5, 5 μl) MNPs, and the hybridized aptamers-MNPs are processed according to the above MARAS procedures. Aptamer-3, aptamer-7 and aptamer-11 bound with MNPs are collected and eluted by heating to 95° C. for 5 min in 100 μl ddH₂O.
The amounts of aptamer-3, aptamer-7 and aptamer-11 are detected by q-PCR and the relative expression levels are utilized as outcomes. The process of detecting the amounts of aptamer-3, aptamer-7 and aptamer-11 by q-PCR is set forth as following. To measure the relative expression of aptamer-3, aptamer-7 and aptamer-11, the q-PCR is performed in 96-well plates with BioRad CFX Connect system. The fivefold-diluted eluted aptamer-3, aptamer-7 and aptamer-11 are individually dissolved in test tubes filled with 100 μl of RNase-free water. […]

| Binder | Kd [1] | IC50 ([2]; double stem-loop (predicted)) | Kd [3] | binding result [4] | IC50 ([2]; single stem-loop (predicted)) |
| --- | --- | --- | --- | --- | --- |
| AGCAGCACAGAGGTCAATGTAATCTTTATCTATCGGCGTGCTACCGTGAA (ssDNA) [Aptamer-3] | 0.0075 µM | 214 µM | – | – | – |
| AGCAGCACAGAGGTCAGGAACCTTATGCCTATGTAGCGTGCTACCGTGAA (ssDNA) [Aptamer-7] | – | 241 µM | 0.0169 µM | – | – |
| AGCAGCACAGAGGTCTCTTATTACTCTCCCGTACCGCGTGCTACCGTGAA (ssDNA) [Aptamer-11] | – | – | – | binds | 263 µM |
